In patent US20030175830, “Reagents and methods for the screening of compounds useful in the treatment of neurological diseases” (Case Western Reserve University, published 2003):

Target: T1, Pet-1 (Rattus norvegicus, UniProt O70132 SEQ:1-340)
T1 sequence: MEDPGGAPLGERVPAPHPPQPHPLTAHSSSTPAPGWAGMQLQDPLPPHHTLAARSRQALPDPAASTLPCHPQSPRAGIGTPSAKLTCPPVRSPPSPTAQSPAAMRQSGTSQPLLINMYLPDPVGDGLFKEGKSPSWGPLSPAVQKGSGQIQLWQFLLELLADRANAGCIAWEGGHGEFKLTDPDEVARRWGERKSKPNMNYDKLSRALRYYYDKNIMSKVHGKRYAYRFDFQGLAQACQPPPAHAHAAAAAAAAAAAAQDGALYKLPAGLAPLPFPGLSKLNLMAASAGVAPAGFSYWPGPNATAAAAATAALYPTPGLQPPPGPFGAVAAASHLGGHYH
Test: competition; molar excess unlabeled PEA3 eliminated complexes
Details: tags: bacterially expressed; label: 32P

B1: PEA3 site oligonucleotide (dsDNA)
DNA 1: GATCCAGGAAGTGAC
DNA 2: GTCACTTCCTGGATC
  binding result: binds
